Results on one substance are retold here after patent publication US6352972.

The target in the experiment is collagen (collagen-coated wells, source not stated). The experiment can be described thus: cell-based or functional assay.

On to “human platelet-derived TGFβ1 (commercial) (from UniProt P01137 279-390) (ligand)”, for which the proliferation of 3T3 cells worked out at 15 fold.
